Measured values taken from article PMC7335206.

Key:
[1] = biological target: N-terminal transactivation domain (TAD) of the tumor suppressor protein p53, labeled with Alexa 488 and Alexa 594, biotinylated; assay: FRET or BRET; single-molecule three-color FRET, CW donor excitation; biotinylated TAD immobilized on PEG-coated glass via NeutrAvidin, 200 nM NCBD in solution; 10 mM Tris pH 7, 30 mM NaCl, 23 °C; maximum likelihood analysis of photon trajectories, 8-state model with acceptor blinking
[2] = biological target: N-terminal transactivation domain (TAD) of the tumor suppressor protein p53, labeled with Alexa 488 and Alexa 594, biotinylated; assay: FRET or BRET; single-molecule three-color FRET, CW donor excitation; biotinylated TAD immobilized on PEG-coated glass via NeutrAvidin, 25 nM NCBD in solution; 10 mM Tris pH 7, 0 mM NaCl, 23 °C; maximum likelihood analysis of photon trajectories, 8-state model with acceptor blinking
[3] = biological target: N-terminal transactivation domain (TAD) of the tumor suppressor protein p53, labeled with Alexa 488 and Alexa 594, biotinylated; assay: FRET or BRET; single-molecule three-color FRET, CW donor excitation; biotinylated TAD immobilized on PEG-coated glass via NeutrAvidin, 100 nM NCBD in solution; 10 mM Tris pH 7, 10 mM NaCl, 23 °C; maximum likelihood analysis of photon trajectories, 8-state model with acceptor blinking

Q: “nuclear coactivator binding domain (NCBD) of the CREB binding protein (CBP), S2066C, labeled with CF680R (domain or fragment)” was tested. Which Kd [1] did it give?
A: 2480 nM

Q: What about the kon [1] of the same substance?
A: 5.2e+08 M⁻¹ s⁻¹

Q: And the Kd [2]?
A: 123 nM

Q: And the kon [2]?
A: 2.04e+09 M⁻¹ s⁻¹

Q: What about the Kd [3] of the same substance?
A: 520 nM

Q: What about the kon [3] of the same substance?
A: 9.1e+08 M⁻¹ s⁻¹
